Laboratory results published in patent US20220017622A1 (Pfizer, published 2022).

T1: human B7-H4 extracellular domain (human, UniProt Q7Z7D3 29-258)
T1 construct: For SPR it says only human B7-H4 ECD; also called Hu B7-H4 ECD; huB7-H4 ECD
T1 sequence: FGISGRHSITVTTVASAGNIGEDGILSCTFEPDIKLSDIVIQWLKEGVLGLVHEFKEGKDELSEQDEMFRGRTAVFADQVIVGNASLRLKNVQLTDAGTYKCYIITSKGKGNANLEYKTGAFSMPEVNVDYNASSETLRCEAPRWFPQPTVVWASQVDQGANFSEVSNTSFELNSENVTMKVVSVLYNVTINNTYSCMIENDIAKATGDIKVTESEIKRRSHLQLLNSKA


biological target: T1, human B7-H4 extracellular domain; assay: competition ELISA on coated huB7-H4 ECD; competitor biotinylated 0052 (by series, not given)
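For IC50 in this document: tested antibody premixed 1:1 with biotinylated parental antibody, 2 h at room temperature on coated ECD, bound biotin detected via streptavidin-HRP, absorbance read at 450 nm.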

Row | IC50 [nM] | Binder
1 | 1.4 | B7-H4 antibody 1080 (antibody, human IgG1, kappa, V domains shown) VH: EVQLVESGGGLVQPGGSLRLSCAVSGGSFSGYYWNWIRQPPGKGLEWIGEINHSGSATYNPSLKSRVTISVDTAKNSLYLQMNSLRAEDTAVYYCARGLYNWNVDHWGQGTLVTVSS VL: DIQMTQSPSSLSASVGDRVTITCRASQGIRNDLGWYQQKPGKAPKRLIYAASSLQSGVPSRFSGSGSGTDFTLTISSLQPEDFATYYCLQHNAYPRTFGGGTKVEIKR
2 | 17.6 | B7-H4 antibody 0350 (antibody, human IgG1, kappa, V domains shown) VH: EVQLVESGGGLVQPGGSLRLSCAVSGGSFSGYYWSWVRQPPGKGLEWIGEINHSGSATYNPSLKSRFTISVDTAKNSFYLQMNSLRAEDTAVYYCARGLYNWNVDHWGQGTLVTVSS VL: DIQMTQSPSSLSASVGDRVTITCRASQGIRNDLGWYQQKPGKAPKRLIYAASSLQSGVPSRFSGSGSGTEFTLTISSLQPEDFATYYCLQHNSYPRTFGGGTKVEIKR

biological target: T1, human B7-H4 extracellular domain; assay: SPR Biacore 8K 25 C; mAb captured on anti-human Fc, huB7-H4 ECD analyte, 1:1 fit;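 also: antibodies tested as IgG1, running buffer HBS-EP+ at pH 7.4, rate constants and affinity from a 1:1 Langmuir model fit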

Row | Binder | Kd [nM] | koff [s⁻¹] | kon [M⁻¹ s⁻¹]
3 | B7-H4 antibody 0059 (antibody, human IgG1, kappa, V domains shown, also called 47A1) VH: EVQLLESGGGLVQPGGSLRLSCAASGFTFSSYALSWVRQAPGKGLEWVSTINVGGVDTNYAGSVKGRFTISRDNPKNTLCLQMNSLRAEDTAVYHCAKARITMVRGVIIPLFDYWGQGTLVTVAS VL: not shown | 0.68 | 0.000389 | 568000
4 | B7-H4 antibody 0052 (antibody, human IgG1, kappa, V domains shown, also called 28D10) VH: QVQLQQWGAGLLKPSETLSLTCAVYGGSFSGYYWNWIRQPPGKGLEWIGEINHSGSTKYNPSLKSRVTISGDTSKNQFSLKLNSVTAADTAVYYCVRGLYNWNVDSWGQGTLVTVSS VL: DIQMTQSPSSLSASVGDRVTITCRASQGIRNDLGWYQQKPGKAPKRLIYVASSLQSGVPSRFSGSGSGTEFTLTISSLQPEDFATYYCLQHNSYPYTFGQGTKLEIKR | 7.83 | 0.0011 | 140000
5 | B7-H4 antibody 0056 (antibody, human IgG1, kappa, V domains shown, also called 33G4) VH: EVQLLESGGGLVQPGGSLRLSCAASGFTFSTYAMNWVRQAPGKGLAWVSAISGSGGSTYYADSVKGRFTISRDDSKNTLYLQMNSLRAEDTAVYYCAKVDVVARYYGMDVWGQGTTVTVSS VL: DIQMTQSPSTLSASVGDRVTITCRASQSISGWLAWYQQKPGKAPKLLIYEASSLESGVPSRFSGSGSGTEFTLTISSLQPDDFATYYCQQYKSYSWTFGQGTKVEIKR | 0.62 | 0.000353 | 574000
6 | B7-H4 antibody 0055 (antibody, human IgG1, kappa, V domains shown, also called 32F3) VH: QVQLQESGPGLVKPSETLSLTCTVSGGSISSSSYYWGWIRQPPGKGLEWIGTIYFSGNTYYNPSLKSRVTISVDTSKSQLSLKLNSVTAADTAVYYCARLRVTMVRGVIIGVFDYWGQGTLVTVSS VL: not shown | 1.9 | 0.000725 | 382000
7 | B7-H4 antibody 0053 (antibody, human IgG1, kappa, V domains shown, also called 29G6) VH: QVQLQQWGAGLLKPSETLSLTCAVYGGPFSGYFWSWIRQPPGKGLEWIGEINHSGNTNYNPSLKSRVTISVDTSKNQFSLKLSSVTAADTAVYYCARAGGDYGFYYYYGMDVWGQGTTVTVSS VL: DIQLTQSPSTLSASVGDRVTITCRASQSISSWLAWYQQKPGKAPELLVYKASRLESGVPSRFSGSGSGTEFTLTISSLQPDDFATYYCQQYNSYFGGGTKVEIKR | 0.74 | 0.000321 | 434000

Other lines, results leading:

Row | Kd [nM] | koff [s⁻¹] | kon [M⁻¹ s⁻¹] | Binder
8 | 1.35 | 0.00075 | 558000 | B7-H4 antibody 0060 (antibody, human IgG1, kappa, V domains shown, also called 42E2) VH: QVQLQESGPGLVKPSETLSLTCTVSTGSISSSSYYWGWIRQPPGKGLEWIGTIYFSGSTYYNPSLKSRVTISVDTSKNQFSLKLTSVTAADTAVYYCARLRVTMVRGVIIGVFDFWGQGTLVTVSS VL: not shown
9 | 0.84 | 0.000572 | 678000 | B7-H4 antibody 0061 (antibody, human IgG1, kappa, V domains shown, also called 46E10) VH: QVQLQQWGAGLLKPSETLSLTCAVYGGSFSGYFWSWIRQPPGKGLEWIGEFNHSGGTNSNPSLKSRVTMSVDTSKNQFSLKLSSVTAADTAVYFCARAGGDYGFYYYYGLDVWGQGTTVTVSS VL: DIQLTQSPSTLSASVGDRVTITCRASQSISSWLAWYQQKPGKAPELLVYKASRLESGVPSRFSGSGSGTEFTLTISSLQPDDFATYYCQQYNSYFGGGTKVEIKR
